For five proteins, Km, kcat and kcat/Km results are on record in publication PMC7961821, “Comparing Ligninolytic Capabilities of Bacterial and Fungal Dye-Decolorizing Peroxidases and Class-II Peroxidase-Catalases” (International Journal of Molecular Sciences, 2021).

Test in all cases: purified protein
Substrate in data set [1]: CCn1c(=NN=c2sc3cc(S(=O)(=O)O)ccc3n2CC)sc2cc(S(=O)(=O)O)ccc21
Format: biochemical, Amycolatopsis sp. ATCC 39116. As to conditions: 1 mM H2O2, pH 5, 25 °C.

Substrate in data set [2]: COc1cccc(OC)c1O
Substrate in data set [3]: COc1cc(C(O)C(CO)Oc2ccccc2OC)ccc1O
The settings on record: 1 mM H2O2, 100 mM tartrate, pH 3, 25 °C, pH 3.0.

Substrate in data set [4]: Nc1c(S(=O)(=O)O)cc(Nc2cccc(S(=O)(=O)CCOS(=O)(=O)O)c2)c2c1C(=O)c1ccccc1C2=O
As to conditions: 1 mM H2O2, optimal pH (not given for RB19), 25 °C.

Substrate in data set [5]: CCn1c(=NN=c2sc3cc(S(=O)(=O)O)ccc3n2CC)sc2cc(S(=O)(=O)O)ccc21
Format: biochemical, Thermomonospora curvata. The settings on record: 1 mM H2O2, pH 3, 25 °C.

Substrate in data set [6]: COc1ccc(C(O)C(CO)Oc2ccccc2OC)cc1OC
Type of data set: biochemical, Auricularia auricula-judae. The settings on record: 1 mM H2O2, 100 mM tartrate, pH 3, 25 °C.

Substrate in data set [7]: COc1ccc(C(O)C(CO)Oc2ccccc2OC)cc1OC
Format: biochemical, Phanerodontia chrysosporium. As to conditions: 1 mM H2O2, 100 mM tartrate, pH 3, 25 °C.

Substrate in data set [8]: COc1ccc(C(O)C(CO)Oc2ccccc2OC)cc1OC
Type of data set: biochemical, Pleurotus eryngii. The settings on record: 1 mM H2O2, 100 mM tartrate, pH 3, 25 °C.

B1: AspDyP2 (Amycolatopsis sp. ATCC 39116) (protein)
chain: MPVDLSTTLSWKSATGEAATMLDELQPNILKAHVRDRLTVLFLGFGDAAEARTFLNGLSGLMKSARTHLQEVEAHKLTKAVGTPYLGVGLTAHGYATLGVTAPADPSFTAGAKAAVEKLADPAVTEWEGHYQQTIDAVLLLGDATAGPVRTLRRQVEALRPASVTVVGEESGLGLANANGDGIEHFGYVDGRSQPLFLTEDVDAERDTTDGVNDWDPSAPLEQVLVPDPAAPDPTVHFGSYFVFRKLEQNVRLFKEAERDLAHDLGLRGEDRERAGAMLVGRFEDGTPLTAQSAPGSHHPVGNDFSYDSDKLGQKCPFHAHIRKTNPRGSGGAEAPEEERKHLMARRGQTYGRRHDDPNADLPPRLRPAKDVGLLFMAFNSNLGNQFEFTQQIWANNPAFPFPPDGSQPGLDPVIGQGARAPQKYAPEWGHNNVAEATDPIPQAVTMKGGEYFFMPSLAFLRSL
notes: mature protein, codon-optimised, N-terminal His tag (pET28a), soluble from E. coli BL21(DE3) pLysS, heme enzyme
The term Km denotes the concentration of substrate that gives half-maximal velocity. For orientation: kcat means the maximal rate divided by the concentration of active sites. As a reminder, the kcat/Km is the turnover number divided by the Michaelis constant. Regarding B1, the Km in data set [1] is given as 165 ± 18 µM; in data set [2] (1 mM H2O2, pH 4, 25 °C, pH 4.0), 177 ± 34 µM; in data set [3] it was 179 ± 39 µM; in data set [4], 20 ± 4 µM. Also, the kcat was 30.0 ± 0.9 s⁻¹ in data set [1]; 94.0 ± 4.6 s⁻¹ in data set [2] (1 mM H2O2, pH 4, 25 °C, pH 4.0); 12.0 ± 1.2 s⁻¹ in data set [3]; 26.0 ± 2.0 s⁻¹ in data set [4]. Further, the kcat/Km in data set [1] came out at 180000 ± 20000 M⁻¹ s⁻¹; in data set [2] (1 mM H2O2, pH 4, 25 °C, pH 4.0), 530000 ± 80000 M⁻¹ s⁻¹; in data set [3], 67000 ± 8500 M⁻¹ s⁻¹; in data set [4], 1.3e+06 ± 200000 M⁻¹ s⁻¹.

B2: TcuDyP (Thermomonospora curvata DSM 43183) (protein)
chain: SEERAAGARPSATQTTGTATEPFHGPHQAGIATPPQAHAVFLGLDLRKGTGRKELGRLMRLLTDDARRLTQGRPALADPEPDLAPLPSRLTFTFGFGPGLFKAAGLEKQRPEGLRPLPPFKVDRLEDRWSGGDLLVQICCDDPITLAHALRMTVKDARAFTRVRWVQRGFRRSPGVQSSGATQRNLMGQLDGTVNPVPGTADFDQAVWVQDGPEWLRGGTTLVLRRIRMELEKWDEADPAGKEFAVGRRLTSGAPLTGRHEHDEPDFDAVDSAGFPVIAENAHIRLAHVDSPRLRMLRRPYNYDEGLTADGRSDAGLLFAAYQADIDRQFIPVQRRLDEGGDLLNLWTTPIGSAVFAIPPGCDENGWIGQGLLG
notes: mature protein without signal peptide, codon-optimised, N-terminal His tag (pET28a), soluble from E. coli BL21(DE3) pLysS, heme enzyme
Take B2: the Km in data set [5] was 309 ± 95 µM; in data set [2] (1 mM H2O2, pH 3, 25 °C, pH 3.0) it was 2 ± 0.3 µM; in data set [3], 80 ± 16 µM; in data set [4], 7 ± 2 µM. The kcat in data set [5] stood at 53.0 ± 6.1 s⁻¹; in data set [2] (1 mM H2O2, pH 3, 25 °C, pH 3.0) it was 2.7 ± 0.4 s⁻¹; in data set [3], 1.1 ± 0.1 s⁻¹; in data set [4], 1.3 ± 0.1 s⁻¹. Further, the kcat/Km in data set [5] stood at 170000 ± 30000 M⁻¹ s⁻¹; in data set [2] (1 mM H2O2, pH 3, 25 °C, pH 3.0), 1.3e+06 ± 100000 M⁻¹ s⁻¹; in data set [3], 14200 ± 1800 M⁻¹ s⁻¹; in data set [4], 200000 ± 40000 M⁻¹ s⁻¹.

B3: AauDyP (Auricularia auricula-judae) (protein)
chain: ATSLNTDDIQGDILVGMHKQKQLFYFFAINDPATFKTHLASDIAPVVASVTQLSNVATQPLVALNIAFSNTGLLALGVTDNLGDSLFANGQAKDATSFKESTSSWVPQFAGTGIHGVIILASDTTDLIDQQVASIESTFGSSISKLYSLSASIRPGNEAGHEMFGFLDGIAQPAINGFNTPLPGQNIVDAGVIITGATNDPITRPSWAVGGSFLAFRQLEQLVPEFNKYLLDNAPAGSGSLQARADLLGARMVGRWKSGAPIDLTPTADDPALGADAQRNNNFTYSHAGFDLGSDQSHCPFSAHIRKTRPRADLGGSLTPPNLSAGANSIMRSGIPYGPEVTSAESASNTTTQERGLAFVAYQAQLSQGFHFLQQTWADNANFPPGKTPATVGLDPIIGQNNGQPRVVNGLLPSNSSASLSIPQFVVSHGGEYFFSPPISAIGGRLSA
notes: heme enzyme
On to B3, for which, in data set [6], the Km was found to be 448 ± 59 µM, the kcat worked out at 0.3 ± 0.01 s⁻¹ and the kcat/Km turned out to be 700 ± 100 M⁻¹ s⁻¹.

B4: PchLiPA (Phanerodontia chrysosporium) (protein)
chain: ATCSNGKTVGDASCCAWFDVLDDIQQNLFHGGQCGAEAHESIRLVFHDSIAISPAMEAQGKFGGGGADGSIMIFDDIETAFHPNIGLDEIVKLQKPFVQKHGVTPGDFIAFAGRVALSNCPGAPQMNFFTGRAPATQPAPDGLVPEPFHTVDQIINRVNDAGEFDELELVWMLSAHSVAAVNDVDPTVQGLPFDSTPGIFDSQFFVETQLRGTAFPGSGGNQGEVESPLPGEIRIQSDHTIARDSRTACEWQSFVNNQSKLVDDFQFIFLALTQLGQDPNAMTDCSDVIPQSKPIPGNLPFSFFPAGKTIKDVEQACAETPFPTLTTLPGPETSVQRIPPPPGA
notes: heme enzyme
Regarding B4, in data set [7], the Km is listed as 88 ± 3 µM, the kcat worked out at 1.3 ± 0.2 s⁻¹ and the kcat/Km is 14700 ± 400 M⁻¹ s⁻¹. In addition, in data set [3], the Km is 208 ± 41 µM, the kcat was 1.3 ± 0.1 s⁻¹ and the kcat/Km came to 6500 ± 700 M⁻¹ s⁻¹.

B5: PerVPL (Pleurotus eryngii) (protein)
chain: ATCDDGRTTANAACCILFPILDDIQENLFDGAQCGEEVHESLRLTFHDAIGFSPTLGGGGADGSIIAFDTIETNFPANAGIDEIVSAQKPFVAKHNISAGDFIQFAGAVGVSNCPGGVRIPFFLGRPDAVAASPDHLVPEPFDSVDSILARMGDAGFSPVEVVWLLASHSIAAADKVDPSIPGTPFDSTPGVFDSQFFIETQLKGRLFPGTADNKGEAQSPLQGEIRLQSDHLLARDPQTACEWQSMVNNQPKIQNRFAATMSKMALLGQDKTKLIDCSDVIPTPPALVGAAHLPAGFSLSDVEQACAATPFPALTADPGPVTSVPPVPGS
notes: heme enzyme
B5: in data set [8], the Km turned out to be 659 ± 80 µM, the kcat is 1.2 ± 0.1 s⁻¹ and the kcat/Km came out at 1800 ± 100 M⁻¹ s⁻¹. In data set [3], the Km is 206 ± 17 µM, the kcat came to 2.7 ± 0.1 s⁻¹ and the kcat/Km came to 13200 ± 700 M⁻¹ s⁻¹.
